Drawing on paper PMC6108569, this text covers stoichiometry N for 1 substance.

The assay addresses OphAΔC18. The assay is described as follows: crystal structure; proteins from the dimer fractions of gel filtration chromatography, incubated with SAM, SAH or sinefungin before crystallization; hanging drop vapor diffusion unless otherwise specified; homodimer in the crystal. For orientation: In gel filtration, larger molecules generally elute earlier.

On to OphAΔC18 (enzyme), for which the stoichiometry N was 2.

By stoichiometry N is commonly meant a count of units in the complex or per binding partner.
